According to paper doi:10.1101/2024.07.11.602936 (bioRxiv, 2024):

Target: the molecule itself
Assay: cryo-EM structure

B1: glutamine synthetase (GS) (enzyme)
chain: MATSASSHLNKGIKQMYMNLPQGEKIQLMYIWVDGTGEGLRCKTRTLDCDPKCVEELPEWNFDGSSTFQSEGSNSDMYLHPVAMFRDPFRRDPNKLVFCEVFKYNRKPAETNLRHSCKRIMDMVSSQHPWFGMEQEYTLMGTDGHPFGWPSNGFPGPQGPYYCGVGADKAYGRDIVEAHYRACLYAGIKITGTNAEVMPAQWEFQIGPCEGIRMGDHLWVARFILHRVCEDFGVIATFDPKPIPGNWNGAGCHTNFSTKAMREENGLRCIEEAIDKLSKRHQYHIRAYDPKGGLDNARRLTGFHETSNINDFSAGVANRSASIRIPRIVGQEKKGYFEDRRPSANCDPYAVTEAIVRTCLLNETGDEPFQYKN
stoichiometry N: 10
